Test results published in publication PMC5861452.

Target: NS5A domain 1+ (WT) (Hepatitis C virus (replicon plasmid …, UniProt Q9WMX2 2005-2221))
Test: fluorescence polarization

Chain of NS5A domain 1+ (WT) (Hepatitis C virus (Q9WMX2 2005-2221): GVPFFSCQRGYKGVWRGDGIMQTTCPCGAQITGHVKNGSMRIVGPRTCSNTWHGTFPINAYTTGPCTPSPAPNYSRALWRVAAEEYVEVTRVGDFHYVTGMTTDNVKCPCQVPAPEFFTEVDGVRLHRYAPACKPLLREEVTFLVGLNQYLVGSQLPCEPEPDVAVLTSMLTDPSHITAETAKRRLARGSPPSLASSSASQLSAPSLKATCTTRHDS

Binder	Kd [nM]
GGCUGAGGCAGG (ssRNA) [RNA 1 (consensus sequence 1)]	10 ± 1.5
GGGUGGGGGUGG (ssRNA) [RNA 2 (consensus derived)]	20 ± 2.7
AAAAAAAAAAAAAAA (ssRNA) [RNA 6 (A15)]	1000 ± 150
UGUUUGUUUGUCCC (ssRNA) [RNA 3 (minimal GRE)]	100 ± 10
